How the values were obtained:
[1] = molecular target: T1, human wildtype TMPRSS2 ectodomain (activated, two-chain) (human, UniProt O15393-1 107-255; O15393-1 256-492); test: enzyme inhibition kinetics (tight-binding inhibition, fit to the Morrison equation); 50 pM human or hamster TMPRSS2 incubated with a 2/3-fold serial dilution of HAI-2 (300 to 5.2 pM) for 16 hours at room temperature; rates on the fluorogenic substrate Boc-Gln-Ala-Arg-AMC; equilibrium inhibitory constant; triplicate; details: both partners purified
T1 construct: TMPRSS2, human, UniProt O15393-1; held to the SP domain by a disulfide bond after cleavage; Expressed as one chain 107-492 with an Ig kappa leader; also called Human TMPRSS2; Hu TMPRSS2; source: FreeStyle 293 F (HEK293F), co-transfected with full-length HAI-2; purified from the supernatant (G25, Ni-NTA IMAC, size-exclusion chromatography)
T1 sequence (O15393 107-255, chain 1 of 2): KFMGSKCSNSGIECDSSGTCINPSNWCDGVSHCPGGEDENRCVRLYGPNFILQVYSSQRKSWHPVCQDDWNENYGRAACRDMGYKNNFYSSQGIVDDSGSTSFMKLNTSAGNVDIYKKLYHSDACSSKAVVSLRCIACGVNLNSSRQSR
T1 sequence (O15393 256-492, chain 2 of 2): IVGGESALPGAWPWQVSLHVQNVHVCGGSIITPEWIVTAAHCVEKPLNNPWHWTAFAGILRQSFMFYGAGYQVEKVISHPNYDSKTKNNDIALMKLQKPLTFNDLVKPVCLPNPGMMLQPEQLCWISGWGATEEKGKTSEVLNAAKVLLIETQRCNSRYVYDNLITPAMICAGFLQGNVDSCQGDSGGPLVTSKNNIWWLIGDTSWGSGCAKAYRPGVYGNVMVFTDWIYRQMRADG

[2] = molecular target: T2, Syrian hamster wildtype TMPRSS2 ectodomain (activated, two-chain) (Syrian hamster (Mesocricetus auratus), UniProt A0A1U8C7X1 108-254; A0A1U8C7X1 255-491); test: as above; details: both partners purified
T2 construct: TMPRSS2, Syrian hamster (Mesocricetus auratus), UniProt printed as 'A0A1U8C7 × 1'; N-terminal non-catalytic part of the ectodomain construct 108-491 up to the arginine of the scissile bond, R254; Expressed as one chain 108-491 with an Ig kappa leader; also called Hamster TMPRSS2; Ham TMPRSS2; source: FreeStyle 293 F (HEK293F), co-transfected with full-length HAI-2; purified from the supernatant …
T2 sequence (chain, as listed by the source, chain 1 of 2): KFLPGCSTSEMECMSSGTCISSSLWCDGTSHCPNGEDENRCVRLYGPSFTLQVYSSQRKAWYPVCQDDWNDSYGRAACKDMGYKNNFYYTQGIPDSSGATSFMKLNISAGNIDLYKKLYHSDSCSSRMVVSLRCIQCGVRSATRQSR
T2 sequence (chain, as listed by the source, chain 2 of 2): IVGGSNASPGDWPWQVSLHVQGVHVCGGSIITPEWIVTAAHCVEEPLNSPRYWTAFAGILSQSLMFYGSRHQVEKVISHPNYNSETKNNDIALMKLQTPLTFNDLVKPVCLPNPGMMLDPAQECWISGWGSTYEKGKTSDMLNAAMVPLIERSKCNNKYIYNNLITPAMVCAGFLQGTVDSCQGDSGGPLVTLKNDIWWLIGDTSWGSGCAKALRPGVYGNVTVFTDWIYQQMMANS

B1: human HAI-2 (hepatocyte growth factor activator inhibitor-2) ectodomain (domain or fragment, UniProt O43291-1 36-196, looked up)
chain: DFCLVSKVVGRCRASMPRWWYNVTDGSCQLFVYGGCDGNSNNYLTKEECLKKCATVTENATGDLATSRNAADSSVPSAPRRQDSEDHSSDMFNYEEYCTANAVTGPCRASFPRWYFDVERNSCNNFIYGGCRGNKNSYRSEEACMLRCFRQQENPPLPLGS
notes: source: FreeStyle 293 F (HEK293F), pcDNA3.1; purified (Ni-NTA IMAC, size-exclusion chromatography)
[1]
  Ki: 4.6 pM
[2]
  Ki: 0.7 pM
